Data taken from the DeepSol protein solubility set.

experiment: soluble on expression in E. coli; label from the status in PepcDB or PDB records

Soluble on expression in E. coli, soluble:
AHHHHHHGSKLKFWREVAIDIISDFETTIMPFFGNPDGGKLVKISPSGDETKLVDKLAEDLILSRITELGVNVVSEEVGVIDNESEYTVIVDPLDGSYNFIAGIPFFALSLAVFKKDKPIYAIIYEPMTERFFEGIPGEGAFLNGKRIKVRKTPDEKPSISFYSRGKGHEIVKHVKRTRTLGAIALELAYLAMGALDGVVDVRKYVRPTDIAAGTIIAKEAGALIKDSAGKDIDISFNATDRLDVIAVNSEELLKTILSLLE
MSLAEFIYTMKKVRKAHGDKVILDDVTLSFYPGAKIGVVGPNGAGKSSVLRIMAGLDKPNNGDAFLATGATVGILQQEPPLNEDKTVRGNVEEGMGDIKIKLDRFNEVAELMATDYTDELMEEMGRLQEELDHADAWDLDAQLEQAMDALRCPPADEPVTNLSGGERRRVALCKLLLSKPDLLLLDEPTNHLDAESVQWLEQHLASYPGAILAVTHDRYFLDNVAEWILELDRGRAYPYEGNYSTYLEKKAERLAVQGRKDAKLQKRLTEELAWVRSGAKARQAKSKARLQRYEEMAAEAEKTRKLDFEEIQIPVGPRLGNVVVEVDHLDKGYDGRALIKDLSFSLPRNGIVGVIGPNGVGKTTLFKTIVGLETPDSGSVKVGETVKLSYVDQARAGIDPRKTVWEVVSDGLDYIQVGQTEVPSRAYVSAFGFKGPDQQKPAGVLSGGERNRLNLALTLKQGGNLILLDEPTNDLDVETLGSLENALLNFPGCAVVISHDRWFLDRTCTHILAWEGDDDNEAKWFWFEGNFGAYEENKVERLGVDAARPHRVTHRKLTRGEGHHHHHH
SNAMKIAVINGGTRSGGNTDVLAEKAVQGFDAEHIYLQKYPIQPIEDLRHAQGGFRPVQDDYDSIIERILQCHILIFATPIYWFGMSGTLKLFIDRWSQTLRDPRFPDFKQQMSVKQAYVIAVGGDNPKIKGLPLIQQFEHIFHFMGMSFKGYVLGEGNRPGDILRDHQALSAASRLLKRSDAI
MAHHHHHHMKCEVDRPVTQNTERNGSEGNVAKNYMTHLYQFQNNEMKKIDASYFENKYLGLFFGASWCRYCVTFIQNINFFKKNFPFIEIIYIPFDKTYNDYVAFLKATDFYSLPFDNYLYICKKFNIKNLPSFMIIAPNNNVLVKDAVQLIKTDTYVNNFKSLVKNYTVHPSHFKIGNRFFDLFCA

Soluble on expression in E. coli, not soluble:
MGSDKIHHHHHHMKTYMISLHGAYENENFGDELLIAIQAKWINDEGYDVCLPFASKVYREQIPSLDKEGSRGLEESEKLIYTGGGYFGEPNHKTFKWGINFFRKKHHIPAKIFKKNNKKYLICGVGAGPITNPITRYTVVKICNFAEKVVVRDTTSYDYLIKYGVIPEKIQVGADVVLSLTIHDLPKGSIEKAKKTLNKDNKNFYLGIHIGVSPDDENYKTNVKAAMESLANVIKRNSVVPVLIADKRNATSTQEKAIEYMSSLLDEEPIVYRHSNIWETCAFLSSLDGVVTTKLHVGITAYTLGTRTFGIAAHQKTRRFYNQIKKENYFYELKEVDNGIESSLELFIKDRYWDEETLQAKKELNERALLCKREMLQFLES
ISDTLNIQRKKIILYAPTFRDYNMQSIQLPFTEEQLIHQLKEEYVLFVKLHPAIQNNIDIKYSSDYIKDVSNYALFDLLMAADILITDYSSVPFEFSILNKPILFYTYDLKLYQQKRGLVDNYLSIIPGRACYDSESLINEIQTPFNYSKIKVFSDRWNKYSDGNSSQNLLNFIEN
MPGIIYEGKGTNMEYADVFDSLVGDLKDDVLSLQLTNFDDVNHSYKSDGKCSMSVKDFDGYAENMPVKNVEYNGQKYIFMRSISDDAQPSQVFISVDGDERGRKRGMLITSFCGILRMISTFDYQIANSVTAKIFKVLGEYSCEEEE
MGSDKIHHHHHHMTIRINADFSQRIVVQPGDYHWVESPMPGVQRMMLDRVGGETARATSIVRYEPFSEFSPHIHSGGEEFFVLEGVFSDEHQCYGKGSYVRNPIGSSHTPKIGKEGATIFVKLQQFDEKDTEQKVIDTQTQPWFQGLVGGLKVMPLHEFESEHVALVKWAPNTQFTAHQHWGGEEIFVLEGTFHDEHGRYPKGSWLRSPHLSRHSPFTKEEGALIYVKTGHL
MYVCKHCGSAMNKDVEIDIVGIKGNTLYVGECKWSNKKIDVRVLDRLRSKVPYLLKDLQVDNLSVVYYLFSRSGFDGLKETEEVKLVELKDLFR
MSLFDFFKNKGSAATATDRLKLILAKERTLNLPYMEEMRKEIIAVIQKYTKSSDIHFKTLDSNQSVETIEVEIILPR
MIQDTRPLIRVVAGILLDSDGNYLLSSRPEGKPYAGYWEFAGGKVEAGETDFQALQREFEEELGIRILAATPWLTKIHSYEHARVCLKFLWVNPDQWTGKPQSREGQEWSWQKAGDFTVAPMLPANGALLRSLSVPRRLYGSLKTGLHGENSMGAYRVLPLGSAEGSGANVLMEAAQWQDRPEHADSVWMVVQTREQWRRAQEKGADAVVWRVCDDVQAQEAAEALRQGVSVPLVLAANGQTVARYGKLWLGLGAHVVVRDETIGKNHE
MANVESLYKELTAEWSKRPPNTVKCGQLLDQLKVALVKMAFLPTDGNDAQSSKKQLILARSVLEVAVEHSVLSKDLLAFERYMAQLKCYYYDYAKIIGESESKYKLLGLNLLYLLSGNRVSDFHTELELLSVDVIQHNQFIRPILALEQYIMEGRYNKIFQAKSTVPVEVYSYFMDLLLETVRDEIGACIEKSYDKISAKDAAKRLNLRVPDEIKAFGAKRQWKLEASGDYSFTDRSVKPKELLPSEELAEQVLSYARDLEMIV
MDRFNEYRIMWVLVLFDLPTETKKEKKAYADFRKNLQKDGFTMFQFSIYVRHCGSSENAAVHIKRVKSFLPEFGHVGIMCITDKQFGDIELFYGKKVQDVNTPGQQLELFLEHHHHHH
MGSDKIHHHHHHMETCRQEVTMDKVFIISQKAEQQADAIETGIALARVLEKEAEVFAYSYESFAGKEYYNPRLGAAAKVALMNQRSEEIAAKLKALKAEDVAVHSVWTKDLFEHACHHSIRHGFDLMVKAVHHKTHYLPMDWQLIRHVRIPLMMLCDNPLQRARSVLMAVDLGSDNPIKQKLNQCVIQQGRQLAEAMDCQLHLAYIIRVPKILRDMDLIDTRTLVKDAYHRYQPQLDEIDLHQEHVHFLAGDPDLCLYELSCRLKAAYLVMGARQRKGLMGMVIGNTAEAMLTRIRSNVLIIPADDQLLPA
MGHHHHHHSHPKQEKLLSLAGDSLFWSEADVVQATDDFNQNRKISQGTFADVYRGHRHGKPFVFKKLRETACSSPGSIERFFQAELQICLRCCHPNVLPVLGFCAARQFHSFIYPYMANGSLQDRLQGQGGSDPLPWPQRVSICSGLLCAVEYLHGLEIIHSNVKSSNVLLDQNLTPKLAHPMAHLCPVNKRSKYTMMKTHLLRTSAAYLPEDFIRVGQLTKRVDIFSCGIVLAEVLTGIPAMDNNRSPVYLKDLLLSDIPSSTASLCSRKTGVENVMAKEICQKYLEKGAGRLPEDCAEALATAACLCLRRRNTSLQEVCGSVAAVEERLRGRETLL
MGSDKIHHHHHHMAKVFLKRMNRRISGGHLWIFYNEILKVEGEYENGSVVDVFRPDGSFFGKGYINDNSKIRVRILTWKNEVIDRNFIKNRIESALKRKKKLVKETTAFRVVHSEGDFLPGLIVDLFGDYLVFQITTLGMEKMKDWILDSLVEIFKPKGIYEKSEGTFREKEGLDNREEWVYGKGPELIEFEMNGFKFLADTRGQKTGFFLDQRENARMVMDLAEGKVCLDVFSYTGNFAVHLLKGGAKHVTLVDYSERALEVAREILKLNGFDSSRYDLLPGNAFDILKSFDREGRKYDLVVLDPPSFAKSSSNLESARRGYKEINLRAMRILKKPGVLVTSSCTQIVSEELFREILFDASFDTKTSLTVLRRGGQPPDHPVLMNVPETQYLKFYILQVDKR
GDKVIVMGHKRPDLDAIGAAIGVSRFASMNNLEAFIVLNDSDIDPTLRRVMDEIDKKPELKERFVTSDEAWDMMTSKTTVVVVDTHKPEMVLDENVLNKANRKVVIDHHRRGESFISNPLLVYMEPYASSTAELVTELLEYQPTEQRLTRLESTVMYAGIIVDTRNFTLRTGSRTFDAASYLRAHGADTILTQHFLKDDV
